From the supplement of paper PMC10724198
± gives the standard deviation of the averaged measurements.

Test system: Saccharomyces cerevisiae
Assay: protein stability index of tFT-peptide fusion (C-terminal peptide) (PSI (0-1 scale)); higher = more stable (slower turnover)
Conditions: genetic background: wild type; temperature: 30 C
Method: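 Multiplexed protein stability (MPS) profiling in S. cerevisiae. Random 12-aa peptides (tFT-X12 library) are fused to the C-terminus of a sfGFP-mCherry tandem fluorescent timer, after mCherry and a GGGS linker. Cells are FACS-sorted into 8 mCherry/sfGFP bins and deep-sequenced. The protein stability index (PSI) is the read-weighted bin average, scaled from 0 (unstable) to 1 (stable). Only peptides with >10 reads are reported; cells were grown at 30 °C in SC-His with glucose.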
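Note: PSI is a weighted mean of sequencing reads over stability bins, variants kept only with over 10 reads, mCherry proximal and sfGFP distal, peptide attached via GGGS linker.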

Row | Sequence | protein stability index
1 | GGSWGVGGVFVR | 0.658 ± 0.03
2 | GGTGFMHSVDYG | 0.644 ± 0.0089
3 | GGTRCQYKNLFG | 0.683 ± 0.029
4 | GGTSCLLSTAGD | 0.653 ± 0.079
5 | GGVEWEQQGRKE | 0.706 ± 0.072
6 | GGVGGGVEPCFV | 0.66 ± 0.028
7 | GGVGGRGIGFPR | 0.684 ± 0.055
8 | GGVLGPEVCVGG | 0.693 ± 0.047
9 | GGVRGGAAEGAV | 0.751 ± 0.076
10 | GGVRGRRLLGGR | 0.7 ± 0.046
11 | GGVRGVRGRGVG | 0.639 ± 0.049
12 | GGVRSLLWAVVW | 0.583 ± 0.009
13 | GGVSVPSERFRS | 0.788 ± 0.044
14 | GGVWFSCSSAFS | 0.871 ± 0.075
15 | GGWDLIASVREF | 0.649 ± 0.017
16 | GGWGGRGQGWYR | 0.6673 ± 0.0055
17 | GGWGRRRLDGGR | 0.7221 ± 0.0064
18 | GGWWWAVGFGGL | 0.66 ± 0.017
19 | GGYGEGAVLFVG | 0.58 ± 0.012
20 | GHAITSALITHR | 0.652 ± 0.024
21 | GHKIIPPSTRFR | 0.626 ± 0.063
22 | GHSRSTFPWLVI | 0.79 ± 0.095
23 | GIAACASSGLAV | 0.657 ± 0.034
24 | GIENTYVVIFID | 0.598 ± 0.068
25 | GIGEGRDGFVVV | 0.67 ± 0.058

Row | Sequence | protein stability index
26 | GIGVVVLGGCTR | 0.706 ± 0.056
27 | GIHLAPVCASSP | 0.71 ± 0.035
28 | GIIQKAQTSIKI | 0.592 ± 0.0067
29 | GIKAIEKGDIHL | 0.699 ± 0.021
30 | GILFFPSGGISP | 0.805 ± 0.12
31 | GILRSDAVWSFI | 0.699 ± 0.042
32 | GILSPSSLVSSL | 0.69 ± 0.057
33 | GITHSFLRSSVV | 0.689 ± 0.054
34 | GITWSYNKSISH | 0.722 ± 0.048
35 | GIVRGCGGGGEE | 0.6922 ± 0.0049
36 | GIVVEELIFCGR | 0.63 ± 0.0087
37 | GIYFARRVVDFG | 0.65 ± 0.011
38 | GKDSSTASNRYT | 0.688 ± 0.027
39 | GKEIHREIIVTV | 0.618 ± 0.014
40 | GKKEGREAGDRG | 0.691 ± 0.092
41 | GKKKKRIDTKYK | 0.713 ± 0.15
42 | GKKRTGRGESAK | 0.693 ± 0.062
43 | GKLQFAEYYNGI | 0.66 ± 0.0081
44 | GKNKYIYKKKRH | 0.792 ± 0.072
45 | GKRKREEDEEKK | 0.686 ± 0.097
46 | GKRRTIQPGQKM | 0.698 ± 0.032
47 | GKSRRQGCDPRR | 0.659 ± 0.035
48 | GKTRLRAKLTYN | 0.62 ± 0.08
49 | GLAASAFAVEEV | 0.711 ± 0.099
50 | GLALSPFPTLSL | 0.64677 ± 0.00031

Row | Sequence | protein stability index
51 | GLARPFVGFPHL | 0.7352 ± 0.0028
52 | GLCGFLLIETLL | 0.64 ± 0.0085
53 | GLDSGVAGRRGV | 0.662 ± 0.0087
54 | GLEFTAFRLRFL | 0.667 ± 0.068
55 | GLERAVGWAVCG | 0.622 ± 0.015
56 | GLERGRLGSGCG | 0.652 ± 0.0075
57 | GLFRESVLGSVW | 0.708 ± 0.013
58 | GLFSGRCLCGGG | 0.688 ± 0.025
59 | GLFSRGKLIALS | 0.571 ± 0.099
60 | GLGATSGGLRCG | 0.654 ± 0.014
61 | GLGAWRGAGRVG | 0.649 ± 0.053
62 | GLGGAWACGGGR | 0.719 ± 0.11
63 | GLGKWGGGGDER | 0.723 ± 0.012
64 | GLGLGGRGMRVV | 0.687 ± 0.018
65 | GLGQGVGGPWAV | 0.678 ± 0.041
66 | GLGQHPSLMSPP | 0.706 ± 0.028
67 | GLIGLVHFWRGT | 0.655 ± 0.035
68 | GLKKRTIILSVK | 0.532 ± 0.0056
69 | GLPFRYASYLFS | 0.704 ± 0.031
70 | GLPLPTPLLPSP | 0.723 ± 0.01
71 | GLPWRRVGGGSG | 0.699 ± 0.048
72 | GLRENIFTDKKN | 0.728 ± 0.06
73 | GLRHCLLHRTCQ | 0.599 ± 0.0079
74 | GLRLFWFRRVRA | 0.537 ± 0.012
75 | GLRSVQISHIRQ | 0.694 ± 0.012

Row | Sequence | protein stability index
76 | GLRYGLALARPF | 0.65 ± 0.034
77 | GLSFITAGGLVF | 0.688 ± 0.052
78 | GLSLSLLSSLFV | 0.71 ± 0.02
79 | GLVDVYWVCIIV | 0.6069 ± 0.0046
80 | GLVLILRLFSRG | 0.494 ± 0.056
81 | GLWSWFLCYEFY | 0.657 ± 0.02
82 | GLYDGSRLVKLE | 0.736 ± 0.039
83 | GMFVCGVGVVGG | 0.704 ± 0.19
84 | GMRGGGRAQDAR | 0.6609 ± 0.002
85 | GMRRGGGGCRGW | 0.716 ± 0.033
86 | GMSRVSDRRWGS | 0.681 ± 0.013
87 | GMWVGGRGVVGV | 0.627 ± 0.0076
88 | GNCGLLSLYTLF | 0.503 ± 0.023
89 | GNCPGYSELGRF | 0.6941 ± 0.0044
90 | GNDICLVGARVV | 0.6696 ± 0.0059
91 | GNFYFSGSGFFI | 0.709 ± 0.031
92 | GNGVNLEYDKRK | 0.721 ± 0.059
93 | GNKKEKYNRTSS | 0.683 ± 0.0078
94 | GNLTPHSERLPP | 0.658 ± 0.0084
95 | GNLVKTLERDKP | 0.736 ± 0.034
96 | GNNLCILNERFP | 0.763 ± 0.019
97 | GPCRVSLSFFFF | 0.577 ± 0.06
98 | GPFHSGSASRSA | 0.653 ± 0.047
